Source: patent publication US20120053121A1

Biological target: EGF receptor (EGFR) on PC12 cells
Test: cell-based or functional assay

percentage of PC12 cells with neurite outgrowth after 3 days, HB-EGF treated: 87.8%
rate of neurite extension induced by HB-EGF in PC12 cells in the presence of AG1478 (EGF receptor kinase inhibitor): 24.3%
Substance: GMP-grade human mature HB-EGF produced in P. pastoris yeast (from UniProt Q99075 63-148) (ligand)
